Data reported in patent US20110269234.

Tested on: KDR-targeted ZFN pair (artificial)
Test: cell_activity
Conditions: HeLa; up to about 25% with 30 C cold shock versus 1% at 37 C

KDR locus target
activity (% modified chromatids): 25
